Key:
Assay in all cases: pull-down
[1] = biological target: T1, 6H–hTFIIEα F387E (human, UniProt P29083 1-439, F387E)
T1 sequence: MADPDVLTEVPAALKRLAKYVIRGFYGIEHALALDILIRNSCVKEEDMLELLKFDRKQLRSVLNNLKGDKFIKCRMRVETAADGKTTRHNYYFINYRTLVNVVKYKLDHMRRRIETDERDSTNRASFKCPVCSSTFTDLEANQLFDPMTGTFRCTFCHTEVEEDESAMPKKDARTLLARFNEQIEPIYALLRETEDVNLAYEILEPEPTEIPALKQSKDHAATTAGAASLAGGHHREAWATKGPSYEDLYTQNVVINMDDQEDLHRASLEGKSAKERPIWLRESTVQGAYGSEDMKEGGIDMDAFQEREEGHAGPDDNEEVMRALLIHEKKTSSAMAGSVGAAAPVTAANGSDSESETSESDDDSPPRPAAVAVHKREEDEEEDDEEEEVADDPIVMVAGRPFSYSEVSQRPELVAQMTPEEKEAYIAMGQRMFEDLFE

[2] = biological target: T2, 6H–hTFIIEα F387A (human, UniProt P29083 1-439, F387A)
T2 sequence: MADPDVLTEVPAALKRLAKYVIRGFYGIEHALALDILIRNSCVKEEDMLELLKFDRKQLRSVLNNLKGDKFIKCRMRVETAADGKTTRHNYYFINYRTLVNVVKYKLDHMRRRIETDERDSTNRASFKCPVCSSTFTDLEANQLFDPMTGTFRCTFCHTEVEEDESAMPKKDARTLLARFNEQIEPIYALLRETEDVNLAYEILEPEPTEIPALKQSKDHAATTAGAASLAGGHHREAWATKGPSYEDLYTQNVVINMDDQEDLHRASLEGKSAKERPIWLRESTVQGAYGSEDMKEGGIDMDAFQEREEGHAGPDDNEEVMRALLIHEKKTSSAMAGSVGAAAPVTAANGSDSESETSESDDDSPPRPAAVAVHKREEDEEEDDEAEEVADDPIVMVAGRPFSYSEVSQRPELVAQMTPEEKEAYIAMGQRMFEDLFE

[3] = biological target: T3, 6H–hTFIIEα V372D (human, UniProt P29083 1-439, V372D)
T3 sequence: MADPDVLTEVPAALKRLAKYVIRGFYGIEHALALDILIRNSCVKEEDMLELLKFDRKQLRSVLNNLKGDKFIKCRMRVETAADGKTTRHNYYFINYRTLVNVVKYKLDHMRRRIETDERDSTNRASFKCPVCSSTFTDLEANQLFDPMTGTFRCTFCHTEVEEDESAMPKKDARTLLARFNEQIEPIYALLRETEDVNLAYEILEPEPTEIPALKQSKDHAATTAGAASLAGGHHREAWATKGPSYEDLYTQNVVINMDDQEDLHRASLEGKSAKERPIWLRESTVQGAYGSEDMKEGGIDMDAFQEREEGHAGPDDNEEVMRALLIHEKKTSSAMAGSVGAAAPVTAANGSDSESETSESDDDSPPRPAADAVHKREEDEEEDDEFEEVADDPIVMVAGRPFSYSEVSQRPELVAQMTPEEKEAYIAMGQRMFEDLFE

[4] = biological target: T4, 6H–hTFIIEα V390K (human, UniProt P29083 1-439, V390K)
T4 sequence: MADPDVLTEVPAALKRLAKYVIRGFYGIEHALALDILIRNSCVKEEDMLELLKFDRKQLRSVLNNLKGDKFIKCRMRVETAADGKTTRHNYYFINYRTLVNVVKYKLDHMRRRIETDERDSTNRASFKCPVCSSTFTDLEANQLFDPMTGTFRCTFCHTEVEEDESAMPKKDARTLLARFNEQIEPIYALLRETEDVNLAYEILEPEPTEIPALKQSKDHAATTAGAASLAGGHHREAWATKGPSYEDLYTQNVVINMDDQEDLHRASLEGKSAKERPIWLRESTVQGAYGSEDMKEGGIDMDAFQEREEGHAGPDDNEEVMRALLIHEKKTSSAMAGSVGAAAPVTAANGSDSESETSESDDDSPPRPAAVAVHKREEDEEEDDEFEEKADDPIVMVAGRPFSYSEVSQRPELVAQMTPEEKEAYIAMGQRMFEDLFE

[5] = biological target: T5, 6H–hTFIIEα V372A (human, UniProt P29083 1-439, V372A)
T5 sequence: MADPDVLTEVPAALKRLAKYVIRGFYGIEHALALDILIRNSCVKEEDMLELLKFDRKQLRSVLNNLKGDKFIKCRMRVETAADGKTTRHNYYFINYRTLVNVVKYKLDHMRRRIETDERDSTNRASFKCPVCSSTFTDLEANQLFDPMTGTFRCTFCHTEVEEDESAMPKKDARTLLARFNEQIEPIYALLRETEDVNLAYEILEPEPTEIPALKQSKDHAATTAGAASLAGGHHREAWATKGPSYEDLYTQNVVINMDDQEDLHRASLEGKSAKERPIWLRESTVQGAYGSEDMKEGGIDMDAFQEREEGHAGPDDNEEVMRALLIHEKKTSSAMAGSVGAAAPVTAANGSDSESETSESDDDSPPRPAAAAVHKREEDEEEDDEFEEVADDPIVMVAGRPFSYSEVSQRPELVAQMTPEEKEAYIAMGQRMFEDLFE

binding result [1]: binds | binding result [2]: binds | binding result [3]: binds | binding result [4]: binds | binding result [5]: binds
B1: GST-tagged hTFIIEβ (natural protein)
chain: MDPSLLRERELFKKRALSTPVVEKRSASSESSSSSSKKKKTKVEHGGSSGSKQNSDHSNGSFNLKALSGSSGYKFGVLAKIVNYMKTRHQRGDTHPLTLDEILDETQHLDIGLKQKQWLMTEALVNNPKIEVIDGKYAFKPKYNVRDKKALLRLLDQHDQRGLGGILLEDIEEALPNSQKAVKALGDQILFVNRPDKKKILFFNDKSCQFSVDEEFQKLWRSVTVDSMDEEKIEEYLKRQGISSMQESGPKKVAPIQRRKKPASQKKRRFKTHNEHLAGVLKDYSDITSSK
